Experimental data reported in patent publication US20230079439A1, “Compositions and Methods for Enhancing Beta Cell Maturation, Health and Function” (THE REGENTS OF THE UNIVERSITY OF CALIFORNIA, priority 2016, published 2023).

B1: rNL2ED monomers: non-clustered recombinant neuroligin-2 extracellular domain (protein, UniProt Q62888 15-678, looked up)
extracellular domain: QRGGGGPGGGAPGGPGLGLGSLGEERFPVVNTAYGRVRGVRRELNNEILGPVVQFLGVPYATPPLGARRFQPPEAPASWPGVRNATTLPPACPQNLHGALPAIMLPVWFTDNLEAAATYVQNQSEDCLYLNLYVPTEDGPLTKKRDEATLNPPDTDIRDSGKKPVMLFLHGGSYMEGTGNMFDGSVLAAYGNVIVATLNYRLGVLGFLSTGDQAAKGNYGLLDQIQALRWLSENIAHFGGDPERITIFGSGAGASCVNLLILSHHSEGLFQKAIAQSGTAISSWSVNYQPLKYTRLLAAKVGCDREDSTEAVECLRRKSSRELVDQDVQPARYHIAFGPVVDGDVVPDDPEILMQQGEFLNYDMLIGVNQGEGLKFVEDSAESEDGVSASAFDFTVSNFVDNLYGYPEGKDVLRETIKFMYTDWADRDNGEMRRKTLLALFTDHQWVAPAVATAKLHADYQSPVYFYTFYHHCQAEGRPEWADAAHGDELPYVFGVPMVGATDLFPCNFSKNDVMLSAVVMTYWTNFAKTGDPNQPVPQDTKFIHTKPNRFEEVVWSKFNSKEKQYLHIGLKPRVRDNYRANKVAFWLELVPHLHNLHTELFTTTTRLPPYATRWPPRTPGPGTSGTRRPPPPATLPPESDIDLGPRAYDRFPGDSRDYSTELS
modifications: extracellular domain
notes: non-clustered recombinant neuroligin-2 extracellular domain
B2: Soluble neuroligin-2 extracellular domain: soluble protein that competes with endogenous, clustered neuroligin for binding to transcellular partners (protein, UniProt Q8NFZ4 15-677, looked up)
extracellular domain: QRGGGGPGGGAPGGPGLGLGSLGEERFPVVNTAYGRVRGVRRELNNEILGPVVQFLGVPYATPPLGARRFQPPEAPASWPGVRNATTLPPACPQNLHGALPAIMLPVWFTDNLEAAATYVQNQSEDCLYLNLYVPTEDGPLTKKRDEATLNPPDTDIRDPGKKPVMLFLHGGSYMEGTGNMFDGSVLAAYGNVIVATLNYRLGVLGFLSTGDQAAKGNYGLLDQIQALRWLSENIAHFGGDPERITIFGSGAGASCVNLLILSHHSEGLFQKAIAQSGTAISSWSVNYQPLKYTRLLAAKVGCDREDSAEAVECLRRKPSRELVDQDVQPARYHIAFGPVVDGDVVPDDPEILMQQGEFLNYDMLIGVNQGEGLKFVEDSAESEDGVSASAFDFTVSNFVDNLYGYPEGKDVLRETIKFMYTDWADRDNGEMRRKTLLALFTDHQWVAPAVATAKLHADYQSPVYFYTFYHHCQAEGRPEWADAAHGDELPYVFGVPMVGATDLFPCNFSKNDVMLSAVVMTYWTNFAKTGDPNQPVPQDTKFIHTKPNRFEEVVWSKFNSKEKQYLHIGLKPRVRDNYRANKVAFWLELVPHLHNLHTELFTTTTRLPPYATRWPPRPPAGAPGTRRPPPPATLPPEPEPEPGPRAYDRFPGDSRDYSTELS
modifications: extracellular domain

Experiments:
human islet cells = assay: GSIS of dissociated human islet cells after clustered rNL2ED-Fc; format: cell-based; conditions: added 4 hours prior to GSIS
Protocol: FIG. 24 depicts insulin secretion by human islet cells after incubation with cross-linked, clustered rNL2ED-Fc. Indicated volume of solution containing cross-linked rNL2ED-Fc (90 μg/ml) or vehicle alone was added to equal numbers of dissociated human islet cells 4 hours prior to determination of GSIS. Stimulated insulin secretion is shown. […] (n=6 wells, representative of 3 separate experiments).
A recombinant protein with the extracellular domain of neuroligin-2 fused to an IgG Fc domain (rNL2ED-Fc) has been made. In contrast to the peptidomimetic agents, which are modeled on the neurexin binding site, this protein should be able to interact with all extracellular neuroligin-2 binding partners. Chemically cross-linked clusters incorporating this protein are made. Clustered complexes that sufficiently mimic endogenous clustered neuroligin-2 promote β-cell maturation and function to a greater degree than the peptidomimetic-based reagents. […] In contrast, rNL2ED monomers had no effect (not shown).

rat islets = assay: Insulin secretion by rat islets with soluble neuroligin-2; format: cell-based; conditions: 20 mM glucose, read-out: half-maximal inhibition of insulin secretion
Protocol: Soluble neuroligin-2 extracellular domain was added to cultures of rat islets at the indicated concentrations. Insulin secretion was then measured (20 mM glucose). […] The soluble protein competes with endogenous, clustered neuroligin for binding to transcellular partners.

Row | Molecule | stimulated insulin secretion by human β-cells (human islet cells) | IC50 (rat islets) [nM]
1 | B1 | had no effect | 
2 | B2 |  | 9
